# Measurements taken from the supplement of paper PMC10567573.
# ± gives the standard deviation.
# Experiment: protein stability index of a GFP-peptide fusion (GPS, HEK-293T) (PSI 1-6); higher = more stable
# [1] = treatment: DMSO, c terminus: native
# [2] = treatment: MLN4924 1 uM, 8 h, c terminus: native
# [3] = treatment: DMSO, c terminus: a fixed tail appended
# [4] = treatment: MLN4924 1 uM, 8 h, c terminus: a fixed tail appended
# 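Further: 24-mer peptide tiles fused after GFP, lentivirally expressed, FACS-sorted into six equal bins by GFP/DsRed ratio, decoded by Illumina sequencing, PSI is the read-weighted mean bin number.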
Sequence,protein stability index [1],protein stability index [2],protein stability index [3],protein stability index [4]
AAAHASVDIKDVLDFYKQWKEIG [SMG5],3.45 ± 0.3,3.54 ± 0.55,–,–
AADGETTATEELEKTQDDLMKHQT [EPB41L3],–,–,5.62 ± 0.14,5.64 ± 0.14
AAEERALFTDRMATRSTTQSNRTS [WEE1],–,–,5.1 ± 0.2,5.17 ± 0.21
AAEMYQRGRAVLREAGFHQYEVSN [RSAD1],–,–,3.32 ± 0.3,3.29 ± 0.24
AAKARDTGILIFAIGVGQVDFNTL [MATN2],–,–,2.58 ± 1.1,3.16 ± 1
AAPFRFVARPVRFPREHQFFEDGD [ZNF511],–,–,2.85 ± 0.56,3.28 ± 0.62
AARLLRALSSFREESRFCDAHLVL [GAN],–,–,2.41 ± 0.65,2.02 ± 0.27
AATKQEGMEGLLGTLVQLLGSDDI [CTNNB1],–,–,2.63 ± 0.23,2.71 ± 0.58
ACRVTELQQQPLCTSVNTIYDNAV [LRRC59],–,–,2.68 ± 0.4,2.61 ± 0.25
ACSAWLCPGLRLPGSLAGRRAGPA [AUH],–,–,2.2 ± 0.31,2.04 ± 0.9
ADAFHHQVHDDDLLSSSEEECKDR [EMD],–,–,5.66 ± 0.14,5.66 ± 0.17
ADYSAALDPAYTTLEFENVQVLTM [HNF4A],–,–,2.75 ± 0.25,2.39 ± 0.32
AEEAEDHGRIPDPDDFVPPVPPPS [FAM189A2],–,–,5.52 ± 0.24,5.51 ± 0.06
AEFIESGQYRANEGTSSIVMEIQK [TAF7L],–,–,4.23 ± 0.24,4.45 ± 0.32
AEGDSEGLSQGLVDREKGLSAEPG [CHGA],–,–,5.49 ± 0.23,5.49 ± 0.4
AEMSRVSIRILDELVLPFQELQID [HNF4A],–,–,2.67 ± 0.35,2.74 ± 0.23
AERLRAELLDLKAGGFSIRNQKGE [MYORG],–,–,4.1 ± 0.26,4.24 ± 0.29
AEVWVSGTIFIRNVLLFKKQNPGK [RETREG3],–,–,2.68 ± 0.54,2.49 ± 0.35
AFVVYLETETLVTREAVTEILGIE [TSN],–,–,2.58 ± 0.6,2.52 ± 0.7
AGDRFLEALGFSWHDTCFVCAICQ [PDLIM7],–,–,2.32 ± 0.4,2.52 ± 0.28
AGEDNDDLIDNLKEAQYIRTERVE [PCMTD1],–,–,5.08 ± 0.18,5.15 ± 0.26
AGFSPDCIMDDAINILQNEKSHQV [INTS4],–,–,4.13 ± 0.12,4.17 ± 0.18

Sequence,protein stability index [1],protein stability index [2],protein stability index [3],protein stability index [4]
AGSCRLGSAGGLGSTLGGSSYSSC [KRT17],–,–,2.22 ± 0.3,2.27 ± 0.31
AGVLTIALPVPVIVSNFNYFYHRE [KCNA4],–,–,2.6 ± 0.21,2.84 ± 0.79
AIGGTYLGPAFRGLKGRTLYPAVS [SPSB2],–,–,2.51 ± 0.16,2.69 ± 0.19
AIVRKCRQKGTGKEYAAKFIKKRR [DAPK3],–,–,3.45 ± 0.24,3.81 ± 0.32
AIVSCTPVHLIDKLPLPVTIKSHL [RAB40C],–,–,2.18 ± 0.24,2.08 ± 0.19
AKRLLDADDAAAVAAKCPRLSECS [TRIB1],–,–,4 ± 0.51,4.11 ± 0.42
AKTFHLVNPNGQKQQLVDAFLKLA [FAN1],–,–,2 ± 0.36,2.05 ± 0.17
ALGNLVEGMDFHRFYFENLLAKNS [CAMK2B],–,–,2.19 ± 0.24,2.35 ± 0.079
ALLNDHIYVVGGFDGTAHLSSVEA [KLHL12],–,–,2.68 ± 0.32,3 ± 0.38
ALRAQRASSNVFSNFEQTQIQEFK [MYL5],–,–,4.07 ± 0.27,3.93 ± 0.23
ALREENRMLSKENKILQVFWEEHK [CBY2],–,–,3.19 ± 0.12,3.28 ± 0.3
AMAIINGSLYVFGGTTGYIYSTDL [KLHDC10],–,–,3.16 ± 0.2,2.74 ± 0.33
ANAEDAQEFSDVERAIETLIKNFH [S100A14],–,–,3.39 ± 0.43,3.94 ± 0.74
APAGDKGFQPPSPSLRPRPASSIS [DMRTC1],–,–,4.61 ± 0.15,4.57 ± 0.26
AQNDLDISRIKRGNTTLESTDTL [P2RY14],5.26 ± 0.17,5.25 ± 0.22,–,–
AQTLHHKSCYNGRFQLLYVACGMV [DNAAF3],–,–,2.94 ± 0.63,2.39 ± 0.72
ARKGKGAFCNGQKLQVSQQEDITK [IMPA1],–,–,4.46 ± 0.18,4.67 ± 0.18
ARPWTRDSASLPRKPSVPWQRQMD [RASAL3],–,–,2.73 ± 0.22,2.94 ± 0.42
ARSRALRRRWCPAGIMLLALVCLL [SPACA3],–,–,2.23 ± 0.29,2.23 ± 0.19
ASAPTTPCQKSPNGVRVFPPAMPP [TRIM9],–,–,4.14 ± 0.25,4.2 ± 0.17
ASGSFPSQVTATSGNGDFGDWSAF [CLINT1],–,–,3.4 ± 0.23,3.87 ± 0.12
ASSSRSVRTTRGKRKRVDVEESEA [LMNB1],–,–,5.22 ± 0.39,5.49 ± 0.29

Sequence,protein stability index [1],protein stability index [2],protein stability index [3],protein stability index [4]
ATIHGAIRLVCSRGNRLKTTSWGL [SCNN1D],–,–,2.46 ± 0.7,2.18 ± 0.24
AVKKFVESEDDPVVKKIALREIRM [CDKL4],–,–,2.52 ± 0.25,2.98 ± 0.26
AVNSGGPLESIDHSVTGFLCEPDP [ALG2],–,–,4.82 ± 0.21,4.91 ± 0.22
AVPHPPPSTPIKLEEGDGCAREYL [ADD1],–,–,4.16 ± 0.35,4.42 ± 0.23
AWLNYPCFKNWDGSPVSSWILLAE [OAS1],–,–,2.58 ± 0.34,2.3 ± 0.23
AYDFPSPEWDTVTPEAKDLINKML [CAMK2A],–,–,3.24 ± 0.24,3.58 ± 0.34
AYPLELQGQPDPAPRPGPPAGTPP [MOSPD3],–,–,5.14 ± 0.23,5.01 ± 0.14
AYQHSGHLESKDINQEELRALEEV [C10orf62],–,–,5.41 ± 0.29,5.4 ± 0.17
CAKLDSCALGDHGCEHSCVSSEDS [MATN2],–,–,4.91 ± 0.35,4.99 ± 0.38
CDELELHQRFLREGRFWKSKNEDR [ZMYND11],–,–,4.29 ± 0.17,4.31 ± 0.36
CDWLRATGFPQYAQLYEDFLFPID [DLC1],–,–,2.31 ± 0.45,2.26 ± 0.24
CEVPTCSLCKVFGAHKDCQVAPLT [TRIM55],–,–,3.58 ± 0.2,3.7 ± 0.25
CFEASDCKESSPMPVICGPEENYP [NANOGP8],–,–,3.98 ± 0.32,4.24 ± 0.26
CGSKACRRLFGPVDSEQLRRDCDA [CDKN1A],–,–,3.18 ± 0.2,3.23 ± 0.093
CIPATVRSSFANQGEICLCTSRIF [ALDH8A1],–,–,2.28 ± 0.52,2.38 ± 0.21
CLKVGMRREAVQRGRMPPTQPTHG [NR2F2],–,–,3.59 ± 0.27,3.71 ± 0.32
CLRCWDQRTIMKPLEYQFKSQIMS [TLE6],–,–,2.14 ± 0.27,2.47 ± 0.48
CPSSPKQIHLDVDNDRTTPSDLDS [DLC1],–,–,5.52 ± 0.1,5.55 ± 0.14
CRRSIRSALGRQRLQDISSLPLPQ [SPSB4],–,–,3.03 ± 0.38,3.33 ± 0.43
CRYATQLQQIQGLIGGLEAQLSEL [KRT15],–,–,2.23 ± 0.066,2.33 ± 0.18
CSCQADPRHQGHRVQPVKDTAHDF [TRIM35],–,–,3.42 ± 0.31,3.56 ± 0.14
